Laboratory results: article PMC12985673
Where “and” joins values, the source holds several entries; their conditions need not be identical. Equal values may be shown once. Read-outs that look alike come from different tables or passages of the source.

Experiments:
[1] = biological target: NRXβ1 ECD (amino acids 81 to 311), His-tagged, labelled with Alexa Fluor 488 (mouse) (UniProt P0DI97); assay: fluorescence polarisation; 8 nM NRXβ1 ECD–AF488, NL2 or NL2mut titrated 15 nM to 8 μM; 20 mM Hepes pH 7.5, 150 mM NaCl, 1 mM MgCl2, 0.5 mM CaCl2; triplicate; Hill fit with shared slope; apparent
Neurexin β1 ECD [2] = biological target: Neurexin β1 ECD (UniProt P58400); conditions: cited from earlier work
Neurexin β1 [3] = biological target: Neurexin β1 (UniProt P58400); conditions: cited from earlier work
Neurexin β1 [4] = biological target: Neurexin β1 (UniProt P58400); conditions: cited from earlier work; remark: listed apart in the source
Neurexin β1 ECD [5] = biological target: Neurexin β1 ECD (UniProt P58400); conditions: cited from earlier work; remark: listed apart in the source
[6] = biological target: full-length neuroligin 2 (NL2), mouse, without the splice insert at site A (mouse) (UniProt Q69ZK9); assay: proteoliposome colocalisation (TIRF microscopy); as a5 at 2x protein: NL2 1:5 and NRXβ1 1:10 protein:lipid (w/w); all detections
[7] = biological target: full-length neuroligin 2 (NL2), mouse, without the splice insert at site A (mouse) (UniProt Q69ZK9); assay: as above; remark: listed apart in the source
[8] = biological target: full-length neuroligin 2 (NL2), mouse, without the splice insert at site A (mouse) (UniProt Q69ZK9); assay: cryo-EM structure; NL2 and NRXβ1 purified separately, mixed at one-to-one molar ratio, ~20 μM (monomer) each, on ice 10 min; only the ECDs resolved; Ca2+ at the interface

Sequence of full-length neuroligin 2 (NL2), mouse, without the splice insert at site A (mouse) (Q69ZK9 other isoform, or with tags, fused parts or gaps): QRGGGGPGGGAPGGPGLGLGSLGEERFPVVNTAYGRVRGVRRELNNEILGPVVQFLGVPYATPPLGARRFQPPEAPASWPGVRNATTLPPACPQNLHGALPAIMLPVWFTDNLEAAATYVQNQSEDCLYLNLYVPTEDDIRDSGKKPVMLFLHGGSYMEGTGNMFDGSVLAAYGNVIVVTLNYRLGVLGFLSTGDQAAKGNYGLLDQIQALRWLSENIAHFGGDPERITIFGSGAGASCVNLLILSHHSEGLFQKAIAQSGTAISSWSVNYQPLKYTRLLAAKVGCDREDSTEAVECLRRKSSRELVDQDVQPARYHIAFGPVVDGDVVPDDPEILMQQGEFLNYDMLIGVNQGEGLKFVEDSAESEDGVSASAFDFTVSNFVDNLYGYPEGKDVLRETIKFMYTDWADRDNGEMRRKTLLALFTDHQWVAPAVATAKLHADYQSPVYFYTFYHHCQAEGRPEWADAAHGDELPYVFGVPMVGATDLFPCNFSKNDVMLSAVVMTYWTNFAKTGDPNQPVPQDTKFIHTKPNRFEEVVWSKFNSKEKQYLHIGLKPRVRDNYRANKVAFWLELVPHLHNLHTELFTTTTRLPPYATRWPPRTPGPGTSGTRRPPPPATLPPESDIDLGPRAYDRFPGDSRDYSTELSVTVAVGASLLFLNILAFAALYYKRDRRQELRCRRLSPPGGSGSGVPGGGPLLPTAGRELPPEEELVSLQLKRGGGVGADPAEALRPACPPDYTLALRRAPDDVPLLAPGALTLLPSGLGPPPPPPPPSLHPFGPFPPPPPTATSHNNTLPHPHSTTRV
Sequence of Neurexin β1 ECD (P58400 51-396): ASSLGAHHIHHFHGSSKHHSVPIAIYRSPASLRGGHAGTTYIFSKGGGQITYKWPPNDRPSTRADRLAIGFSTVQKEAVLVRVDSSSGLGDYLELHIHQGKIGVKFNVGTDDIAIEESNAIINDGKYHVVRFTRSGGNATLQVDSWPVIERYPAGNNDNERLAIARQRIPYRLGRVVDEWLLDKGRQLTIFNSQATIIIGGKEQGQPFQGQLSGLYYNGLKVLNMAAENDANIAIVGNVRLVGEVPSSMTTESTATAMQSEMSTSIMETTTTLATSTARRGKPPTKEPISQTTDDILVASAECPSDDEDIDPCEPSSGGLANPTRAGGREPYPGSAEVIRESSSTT
Sequence of Neurexin β1 (P58400 51-396): as above
Sequence of Neuroligin 1 ECD (Q8N2Q7 46-717): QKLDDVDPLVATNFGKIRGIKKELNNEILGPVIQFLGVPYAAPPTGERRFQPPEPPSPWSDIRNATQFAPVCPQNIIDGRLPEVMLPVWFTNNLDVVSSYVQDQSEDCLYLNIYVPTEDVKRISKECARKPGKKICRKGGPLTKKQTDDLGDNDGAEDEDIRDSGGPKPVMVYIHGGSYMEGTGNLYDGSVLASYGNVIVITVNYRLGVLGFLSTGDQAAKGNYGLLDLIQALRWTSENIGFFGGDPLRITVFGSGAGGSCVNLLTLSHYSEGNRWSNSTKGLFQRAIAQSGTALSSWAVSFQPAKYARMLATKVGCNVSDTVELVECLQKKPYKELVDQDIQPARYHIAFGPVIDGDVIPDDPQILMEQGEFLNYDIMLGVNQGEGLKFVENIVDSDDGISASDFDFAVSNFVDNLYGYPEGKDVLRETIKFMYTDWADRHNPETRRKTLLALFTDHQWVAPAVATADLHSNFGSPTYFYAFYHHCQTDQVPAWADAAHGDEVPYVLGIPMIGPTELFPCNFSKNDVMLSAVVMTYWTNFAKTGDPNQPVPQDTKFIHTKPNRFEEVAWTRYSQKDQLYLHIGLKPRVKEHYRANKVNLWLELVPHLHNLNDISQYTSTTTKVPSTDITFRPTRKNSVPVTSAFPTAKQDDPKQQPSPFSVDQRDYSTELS
Sequence of full-length neuroligin 2 (NL2), mouse, without the splice insert at site A (Q69ZK9 other isoform, or with tags, fused parts or gaps): as the sequence (Q69ZK9 other isoform, or with tags, fused parts or gaps) above
Sequence of Neuroligin 3 (Q9NZ94 38-709): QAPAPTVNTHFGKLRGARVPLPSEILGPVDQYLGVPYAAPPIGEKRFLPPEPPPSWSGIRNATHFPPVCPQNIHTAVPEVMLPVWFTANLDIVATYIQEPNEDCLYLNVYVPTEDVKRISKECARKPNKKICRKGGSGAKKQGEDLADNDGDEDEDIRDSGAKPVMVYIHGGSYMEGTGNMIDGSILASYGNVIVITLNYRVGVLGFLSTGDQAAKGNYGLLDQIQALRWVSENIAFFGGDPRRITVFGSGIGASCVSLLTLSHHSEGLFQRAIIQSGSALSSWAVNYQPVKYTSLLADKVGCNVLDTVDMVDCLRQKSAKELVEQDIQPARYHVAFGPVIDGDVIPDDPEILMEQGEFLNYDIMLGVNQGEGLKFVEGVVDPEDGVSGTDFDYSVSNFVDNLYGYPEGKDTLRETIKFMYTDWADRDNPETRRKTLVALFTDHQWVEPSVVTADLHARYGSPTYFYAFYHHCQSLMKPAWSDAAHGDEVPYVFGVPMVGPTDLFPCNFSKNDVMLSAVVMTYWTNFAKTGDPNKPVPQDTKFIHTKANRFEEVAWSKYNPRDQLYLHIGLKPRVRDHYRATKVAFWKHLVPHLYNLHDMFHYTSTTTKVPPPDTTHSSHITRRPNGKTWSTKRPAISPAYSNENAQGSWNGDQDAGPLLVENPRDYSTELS
Sequence of Neuroligin 2 (Q8NFZ4 15-677): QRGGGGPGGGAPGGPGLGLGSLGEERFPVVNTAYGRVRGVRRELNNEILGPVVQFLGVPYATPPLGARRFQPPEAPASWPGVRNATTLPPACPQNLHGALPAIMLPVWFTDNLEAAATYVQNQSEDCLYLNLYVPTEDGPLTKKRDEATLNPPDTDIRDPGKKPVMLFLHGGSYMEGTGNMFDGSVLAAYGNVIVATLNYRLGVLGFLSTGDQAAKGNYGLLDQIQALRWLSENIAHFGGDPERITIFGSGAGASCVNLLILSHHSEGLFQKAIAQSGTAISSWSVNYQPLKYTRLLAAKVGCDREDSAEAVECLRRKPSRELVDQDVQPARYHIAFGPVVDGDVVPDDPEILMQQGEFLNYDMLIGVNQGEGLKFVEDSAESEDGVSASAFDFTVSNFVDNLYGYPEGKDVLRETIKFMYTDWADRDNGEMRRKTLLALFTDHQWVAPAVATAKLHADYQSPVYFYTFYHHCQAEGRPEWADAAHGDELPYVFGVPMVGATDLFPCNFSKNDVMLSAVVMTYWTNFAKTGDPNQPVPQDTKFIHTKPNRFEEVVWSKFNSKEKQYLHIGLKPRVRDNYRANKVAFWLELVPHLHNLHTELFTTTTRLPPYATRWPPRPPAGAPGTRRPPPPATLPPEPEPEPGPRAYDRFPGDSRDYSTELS

With “NL2 H279Y G282K mutant (from UniProt Q69ZK9 170-836) (receptor)” as the substance, how does the fold increase of affinity against wild-type NL2 [1] read?
The fold increase of affinity against wild-type NL2 was 30 fold.

With Neuroligin 1 ECD (from UniProt Q8N2Q7) as the substance, how does the Kd (Neurexin β1 ECD [2]) read?
The Kd was 10 nM.

For Neuroligin 2 (from UniProt Q8NFZ4), which Kd (Neurexin β1 [3]) is on record?
The Kd was 10000 nM.

Which Kd (Neurexin β1 [4]) does the source give for Neuroligin 3 (from UniProt Q9NZ94) here?
The Kd was 1000 nM.

Which Kd (Neurexin β1 ECD [5]) does the source give for Neuroligin 4 ECD (from UniProt Q8N0W4) here?
The Kd was 100 nM.

Which results are given for “full-length neurexin β1 (NRXβ1), mouse, without the insert at splice site 4 (from UniProt P0DI97 47-468) (receptor)”?
fraction of vesicles colocalised [6]: 0.6; fraction of vesicles colocalised [7]: > 0.5; stoichiometry N (NRXβ1 per NL2 dimer) [8]: 2 and 1

With “full-length neuroligin 2 (NL2), mouse, without the splice insert at site A (from UniProt Q69ZK9 15-836) (receptor)” as the substance, how does the Kd [1] read?
The Kd was 6000 nM.
